Test results from patent US10799462B2, “Peptide-polypeptide co-assembled nanoparticles for drug delivery” (B. G. Negev Technologies and Applications Ltd., at …, priority 2014, dated 2020).

Experiments:
[1] = Dynamic light scattering (DLS) particle radius; format: physicochemical; conditions: for Rh: n = 4; for Rh* (most common radius measured at 90° using DLS): γ-PGA alone or peptide/γ-PGA NPs 1:1 w/w, n = 9
Experimental: (§1) NPs diameter was measured by dynamic light scattering (DLS) (CGS-3 LSE-5003, ALV, Langen, Germany) at different angles of the detector (90, 60 and 30 degrees) and by Small angle X-ray scattering (SAXS) (SAXLAB's GANESHA 300 XL, Skovlunde, Denmark) Sealed Tube Generator: Cu-Ka 0.154 nm (Genix 3D) equipped with a 2D detector (Pilatus 300k). Surface charge was measured by Zetasizer (Zetasizer Nano ZS, Malvern, Worcestershire, UK) and subsequently the data was analyzed using the Smoluchowski model.

[2] = Zeta potential / surface charge by Zetasizer (Smoluchowski model); format: physicochemical; conditions: for ξ zeta potential: n = 4
Experimental: as §1

[3] = Circular dichroism (CD) secondary structure; format: physicochemical; conditions: for change of CD pattern on mixing with γ-PGA: peptide:γ-PGA 0.25:0.25 mg/ml
Experimental: CD measurements were performed to characterize secondary structure of peptides in the NPs solution. Spectra in the range of 190-260 nm were recorded at room temperature on CD spectropolarimeter (J-715, Jasco, Tokyo, Japan), using a 1-mm quartz cuvette.

Saos2 cells = assay: XTT cell viability (cytotoxicity); format: cell-based; conditions: Homo sapiens, SAOS-2; Saos2 cultures; results not shown
Experimental: The cytotoxicity of coated nanoparticles was assessed by monitoring the viability of Saos2 cells in presence of the NPs. All cell cultured were carried in air supplemented with 5% CO2 at 37° C. In 24 wells plate, 3*10^4 cells/well were seeded, in DMEM complete medium and cultured for 4 h. The cells were supplemented with different concentrations of LND-NPs, control NPs, or free LND and cultured overnight. Cells viability was determined by XTT assay following the manufacturer instructions (Life Technologies, California, USA). The XTT solution was added to the wells and cells were incubated for 4 hr after which the absorbance of the samples was measured at 490 nm, by a microplate-reader (BioTek instruments, Winoosky, Vt.). Cells viability is reported as percentage compared to untreated cultured cells.

[4] = NPs coated with PFK 0.1 mg/ml, single or repeated addition
[5] = PFK alone or PFK/γ-PGA NPs at different PFK:γ-PGA weight ratios, n = 3
[6] = γ-PGA/PFK NPs coated with the peptide, coating solution 0.1 mg/ml
[7] = γ-PGA/PFK NPs coated with the peptide, coating solution 0.5 mg/ml
[8] = γ-PGA alone or peptide/γ-PGA NPs 1:1 w/w, n = 9

Row | Molecule | Rh [1, 4] [nm] | Radius (Rh, DLS at 90°) [1, 5] | Rh* (most common radius measured at 90° using DLS) [1] [nm] | Rh [1, 6] [nm] | Rh [1, 7] [nm] | ξ zeta potential [2, 4] [mV] | ζ zeta potential [2, 5] [mV] | ζ zeta potential [2, 8] [mV] | ξ zeta potential [2, 6] [mV] | ξ zeta potential [2, 7] [mV] | θ215/θ203 (β-sheet relative to unfolded) as function of pH ([3]; PFK alone or 1:1 w/w with γ-PGA) | change of CD pattern on mixing with γ-PGA [3] | IC50 (Saos2 cells) [mM]
1 | PK(FK)5P (PKFKFKFKFKFKP) [PFK, proline capped amphiphilic cationic 13-residue peptide] | 9.8 ± 0.23 | Non spherical NPs | 11.4 ± 2 | 9.8 ± 0.23 | 52.2 ± 50.63 | −33.52 ± 3.11 | 11.6 ± 5 | −49.3 ± 2 | −33.52 ± 3.11 | −35.42 ± 4.5 | steep increase in θ215/θ203 value at pH˜8 | most pronounced shift to β-sheet structure | 
2 | FK(FK)5F (FKFKFKFKFKFKF) [free termini version of the amphiphilic peptide] |  |  | 7.41 ± 1.7 |  |  |  |  | −43.71 ± 9.2 |  |  |  | most pronounced shift to β-sheet structure | 
3 | O=C(O)c1nn(Cc2ccc(Cl)cc2Cl)c2ccccc12 [free LND, Lonidamine] |  |  |  |  |  |  |  |  |  |  |  |  | 1.3
4 | KFFFKKFFKFFKK [rFK, scrambled order control of FK] |  |  | 6.45 ± 1.2 |  |  |  |  | −38.78 ± 3.92 |  |  |  | primarily the Phe-Phe side chain type of absorption | 
5 | KFFPKKPFKFFKK [rPFK, scrambled order control of PFK] |  |  | 9.57 ± 6 | 11.04 ± 7.77 | 9.72 ± 1.03 |  |  | −25.26 ± 8.79 | −37.26 ± 7.03 | −36.0 ± 2.69 |  | almost no change in its CD pattern | 
